Laboratory results published in article PMC6379061 (Nature, 2018).

Molecular target: the molecule itself
Assay: cryo-EM structure

B1: human ABCG2 E211Q mutant (ABCG2EQ) (natural protein)
chain: MSSSNVEVFIPVSQGNTNGFPATASNDLKAFTEGAVLSFHNICYRVKLKSGFLPCRKPVEKEILSNINGIMKPGLNAILGPTGGGKSSLLDVLAARKDPSGLSGDVLINGAPRPANFKCNSGYVVQDDVVMGTLTVRENLQFSAALRLATTMTNHEKNERINRVIQELGLDKVADSKVGTQFIRGVSGGERKRTSIGMELITDPSILFLDQPTTGLDSSTANAVLLLLKRMSKQGRTIIFSIHQPRYSIFKLFDSLTLLASGRLMFHGPAQEALGYFESAGYHCEAYNNPADFFLDIINGDSTAVALNREEDFKATEIIEPSKQDKPLIEKLAEIYVNSSFYKETKAELHQLSGGEKKKKITVFKEISYTTSFCHQLRWVSKRSFKNLLGNPQASIAQIIVTVVLGLVIGAIYFGLKNDSTGIQNRAGVLFFLTTNQCFSSVSAVELFVVEKKLFIHEYISGYYRVSSYFLGKLLSDLLPMRMLPSIIFTCIVYFMLGLKPKADAFFVMMFTLMMVAYSASSMALAIAAGQSVVSVATLLMTICFVFMMIFSGLLVNLTTIASWLSWLQYFSIPRYGFTALQHNEFLGQNFCPGLNATGNNPCNYATCTGEEYLVKQGIDLSPWGLWKNHVALACMIVIFLTIAYLKLLFLKKYS
B1: binds.
